From article PMC8864165, “Functional Effects of ARV-1502 Analogs Against Bacterial Hsp70 and Implications for Antimicrobial Activity” (Frontiers in Chemistry, 2022)

B1: unnamed (parent)
chain 1: RPDKPRPYLPRPRPPRPVR
chain 2: not shown

Variants of: B1
Assay: competitive fluorescence polarization
Conditions: with partner chain of the complex shown; S. aureus DnaK 16 µmol/L; unlabeled peptide 35 µmol/L

Variant | ratio to parent
chain 1 D3S K4S R11L | < 1
chain 1 D3K K4F | < 1
chain 1 D3K K4L | < 1
chain 1 D3K K4S | < 1
chain 1 D3F K4F P10S | < 1
chain 1 D3F K4F P10D | < 1
chain 1 D3S K4S Y8L | < 1
chain 1 Y8L | < 1
chain 1 D3F K4F R11F | < 1
chain 1 D3F K4F R11L | < 1
chain 1 D3K R11L | < 1
